According to patent US20220305003A1, “METHODS OF TREATING CANCER WITH AN INHIBITOR OF ZNF827” (CHILDREN'S MEDICAL RESEARCH INSTITUTE, priority 2019, published 2022):

Tests used:
Settings in all cases: tags: HaloTag (pHTN), expressed in HEK 293T, tag removed by HaloTEV cleavage; label: 32P (gamma)
[1] = biological target: T1, ZNF827 full length (Homo sapiens, UniProt Q17R98 SEQ:1-1081); assay: EMSA; 0.8 mM ZnCl2, 100 mM KCl, poly(dI:dC), on ice
T1 sequence: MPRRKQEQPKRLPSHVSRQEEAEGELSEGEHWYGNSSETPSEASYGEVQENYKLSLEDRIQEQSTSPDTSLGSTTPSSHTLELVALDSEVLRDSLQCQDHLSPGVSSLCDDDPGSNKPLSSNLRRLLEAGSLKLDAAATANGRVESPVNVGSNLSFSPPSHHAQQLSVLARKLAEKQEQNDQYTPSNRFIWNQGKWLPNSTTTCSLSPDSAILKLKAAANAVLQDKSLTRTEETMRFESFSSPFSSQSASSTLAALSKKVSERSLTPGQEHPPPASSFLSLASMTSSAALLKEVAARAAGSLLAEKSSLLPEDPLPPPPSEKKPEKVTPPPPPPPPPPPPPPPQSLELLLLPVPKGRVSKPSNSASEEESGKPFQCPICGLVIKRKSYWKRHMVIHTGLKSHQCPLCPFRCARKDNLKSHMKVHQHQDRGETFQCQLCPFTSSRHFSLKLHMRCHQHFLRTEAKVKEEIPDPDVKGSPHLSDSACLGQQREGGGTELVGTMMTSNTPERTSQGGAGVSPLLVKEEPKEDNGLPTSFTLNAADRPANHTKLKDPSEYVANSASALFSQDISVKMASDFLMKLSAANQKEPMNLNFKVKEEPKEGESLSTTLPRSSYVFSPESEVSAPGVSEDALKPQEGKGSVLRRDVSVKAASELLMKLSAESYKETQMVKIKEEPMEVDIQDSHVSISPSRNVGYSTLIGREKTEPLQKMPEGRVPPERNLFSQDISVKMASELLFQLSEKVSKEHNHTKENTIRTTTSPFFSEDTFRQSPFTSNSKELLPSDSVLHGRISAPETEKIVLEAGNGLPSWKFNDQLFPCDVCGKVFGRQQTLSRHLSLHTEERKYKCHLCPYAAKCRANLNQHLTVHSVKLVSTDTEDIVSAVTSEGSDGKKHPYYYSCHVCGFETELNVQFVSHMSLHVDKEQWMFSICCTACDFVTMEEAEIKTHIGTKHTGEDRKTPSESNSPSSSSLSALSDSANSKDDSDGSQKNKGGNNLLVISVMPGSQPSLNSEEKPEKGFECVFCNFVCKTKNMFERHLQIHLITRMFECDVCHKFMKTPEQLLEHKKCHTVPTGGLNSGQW
Procedure: (§1) Purified proteins were quantified using a BCA assay using the Pierce™ BCA Protein Assay Kit according to the manufacturer's instructions. Equal amounts of purified proteins were incubated in binding buffer (20 mM HEPES-KOH, pH7.9, 100 mM KCl, 0.8 mM ZnCl₂, 0.2 mM EDTA, 5% glycerol, 0.5 mM DTT and 0.5 mM PMSF) with 6.25 μg/mL poly (dI:dC) and 50 ng/μL BSA on ice for 20 minutes. ˜0.12 nM (˜2.5 fmol) γ-³²P labelled DNA oligonucleotide (see Table 3) probes were added to samples and incubated on ice for another 30 minutes. Binding reactions were loaded onto an 8% native acrylamide/bisacrylamide (19:1, Biorad) gel pre-run at 100V in 0.5× TB buffer (89 mM Tris, 89 mM boric acid) for 20 minutes. Gels were electrophoresed at 150 V for 150 minutes at 4° C., dried at 65° C. for 45 minutes, and then exposed to a Phosphor screen overnight. Gel images were obtained by scanning the screens with a Typhoon FLA9500 Imager (GE Life Sciences).

[2] = biological target: T2, ZNF827 ZnF4-9 deleted (Homo sapiens); assay: as above
T2 chain: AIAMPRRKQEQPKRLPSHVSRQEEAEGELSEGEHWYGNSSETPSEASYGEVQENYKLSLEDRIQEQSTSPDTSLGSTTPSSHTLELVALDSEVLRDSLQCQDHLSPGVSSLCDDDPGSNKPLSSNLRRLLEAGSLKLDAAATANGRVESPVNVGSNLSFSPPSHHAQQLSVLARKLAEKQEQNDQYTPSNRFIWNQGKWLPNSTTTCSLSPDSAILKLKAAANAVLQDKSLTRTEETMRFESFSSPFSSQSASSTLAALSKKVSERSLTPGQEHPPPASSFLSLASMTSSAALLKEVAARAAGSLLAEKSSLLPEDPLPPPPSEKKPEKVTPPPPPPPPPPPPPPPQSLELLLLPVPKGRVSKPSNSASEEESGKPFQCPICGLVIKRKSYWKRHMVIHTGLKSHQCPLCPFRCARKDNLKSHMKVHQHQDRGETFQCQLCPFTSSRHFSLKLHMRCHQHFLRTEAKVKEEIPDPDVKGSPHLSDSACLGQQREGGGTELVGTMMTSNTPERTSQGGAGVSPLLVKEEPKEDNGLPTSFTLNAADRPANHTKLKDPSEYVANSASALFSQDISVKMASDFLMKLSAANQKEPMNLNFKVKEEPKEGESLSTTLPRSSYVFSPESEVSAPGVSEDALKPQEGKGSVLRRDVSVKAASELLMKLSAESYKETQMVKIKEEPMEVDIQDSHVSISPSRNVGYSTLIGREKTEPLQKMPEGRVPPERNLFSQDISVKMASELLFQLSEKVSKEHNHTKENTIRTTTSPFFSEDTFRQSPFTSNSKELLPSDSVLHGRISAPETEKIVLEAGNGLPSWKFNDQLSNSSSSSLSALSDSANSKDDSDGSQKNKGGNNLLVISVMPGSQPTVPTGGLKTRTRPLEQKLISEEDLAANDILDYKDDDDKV
Procedure: as §1

[3] = biological target: T3, ZNF827 ZnF1-9 deleted (Homo sapiens); assay: EMSA; interaction abolished
T3 chain: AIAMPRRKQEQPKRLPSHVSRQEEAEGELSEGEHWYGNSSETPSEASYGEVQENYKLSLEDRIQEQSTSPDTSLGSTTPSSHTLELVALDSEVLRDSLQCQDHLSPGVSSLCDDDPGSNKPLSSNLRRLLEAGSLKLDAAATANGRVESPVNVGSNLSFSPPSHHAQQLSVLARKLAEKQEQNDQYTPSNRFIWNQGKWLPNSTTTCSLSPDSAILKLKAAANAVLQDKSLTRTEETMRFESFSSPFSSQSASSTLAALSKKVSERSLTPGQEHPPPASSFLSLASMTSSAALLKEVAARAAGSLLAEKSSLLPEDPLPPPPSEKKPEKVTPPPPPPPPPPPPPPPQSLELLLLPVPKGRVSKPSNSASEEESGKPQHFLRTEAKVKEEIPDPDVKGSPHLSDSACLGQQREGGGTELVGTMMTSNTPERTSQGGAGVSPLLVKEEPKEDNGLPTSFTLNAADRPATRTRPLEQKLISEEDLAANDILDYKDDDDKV
Procedure: as §1

B1: ss telomeric G rich oligo (ssDNA)
DNA: TTAGGGTTAGGGTTAGGG
binding result [1]: binds
binding result [2]: binds
binding result [3]: no binding
